In patent US20220372484A1:

Molecular target: human FPR2 (transcript variant 1; Origene) fused with mGFP (human) (UniProt P25090)
Experiment: cell-based or functional assay

Substance “LL37 peptide (from UniProt P49913 134-170)” has an Inhibition (%) of forskolin-mediated cAMP production of 46%.
